Experimental data taken from patent US20130040894A1, “INHIBITION OR ACTIVATION OF SERINE/THREONINE ULK3 KINASE ACTIVITY” (TALLINN UNIVERSITY OF TECHNOLOGY, priority 2009, published 2013).

What was measured:
FLAG-tagged GLI2, P10070 = molecular target: T1, FLAG-tagged GLI2, P10070
T1 chain: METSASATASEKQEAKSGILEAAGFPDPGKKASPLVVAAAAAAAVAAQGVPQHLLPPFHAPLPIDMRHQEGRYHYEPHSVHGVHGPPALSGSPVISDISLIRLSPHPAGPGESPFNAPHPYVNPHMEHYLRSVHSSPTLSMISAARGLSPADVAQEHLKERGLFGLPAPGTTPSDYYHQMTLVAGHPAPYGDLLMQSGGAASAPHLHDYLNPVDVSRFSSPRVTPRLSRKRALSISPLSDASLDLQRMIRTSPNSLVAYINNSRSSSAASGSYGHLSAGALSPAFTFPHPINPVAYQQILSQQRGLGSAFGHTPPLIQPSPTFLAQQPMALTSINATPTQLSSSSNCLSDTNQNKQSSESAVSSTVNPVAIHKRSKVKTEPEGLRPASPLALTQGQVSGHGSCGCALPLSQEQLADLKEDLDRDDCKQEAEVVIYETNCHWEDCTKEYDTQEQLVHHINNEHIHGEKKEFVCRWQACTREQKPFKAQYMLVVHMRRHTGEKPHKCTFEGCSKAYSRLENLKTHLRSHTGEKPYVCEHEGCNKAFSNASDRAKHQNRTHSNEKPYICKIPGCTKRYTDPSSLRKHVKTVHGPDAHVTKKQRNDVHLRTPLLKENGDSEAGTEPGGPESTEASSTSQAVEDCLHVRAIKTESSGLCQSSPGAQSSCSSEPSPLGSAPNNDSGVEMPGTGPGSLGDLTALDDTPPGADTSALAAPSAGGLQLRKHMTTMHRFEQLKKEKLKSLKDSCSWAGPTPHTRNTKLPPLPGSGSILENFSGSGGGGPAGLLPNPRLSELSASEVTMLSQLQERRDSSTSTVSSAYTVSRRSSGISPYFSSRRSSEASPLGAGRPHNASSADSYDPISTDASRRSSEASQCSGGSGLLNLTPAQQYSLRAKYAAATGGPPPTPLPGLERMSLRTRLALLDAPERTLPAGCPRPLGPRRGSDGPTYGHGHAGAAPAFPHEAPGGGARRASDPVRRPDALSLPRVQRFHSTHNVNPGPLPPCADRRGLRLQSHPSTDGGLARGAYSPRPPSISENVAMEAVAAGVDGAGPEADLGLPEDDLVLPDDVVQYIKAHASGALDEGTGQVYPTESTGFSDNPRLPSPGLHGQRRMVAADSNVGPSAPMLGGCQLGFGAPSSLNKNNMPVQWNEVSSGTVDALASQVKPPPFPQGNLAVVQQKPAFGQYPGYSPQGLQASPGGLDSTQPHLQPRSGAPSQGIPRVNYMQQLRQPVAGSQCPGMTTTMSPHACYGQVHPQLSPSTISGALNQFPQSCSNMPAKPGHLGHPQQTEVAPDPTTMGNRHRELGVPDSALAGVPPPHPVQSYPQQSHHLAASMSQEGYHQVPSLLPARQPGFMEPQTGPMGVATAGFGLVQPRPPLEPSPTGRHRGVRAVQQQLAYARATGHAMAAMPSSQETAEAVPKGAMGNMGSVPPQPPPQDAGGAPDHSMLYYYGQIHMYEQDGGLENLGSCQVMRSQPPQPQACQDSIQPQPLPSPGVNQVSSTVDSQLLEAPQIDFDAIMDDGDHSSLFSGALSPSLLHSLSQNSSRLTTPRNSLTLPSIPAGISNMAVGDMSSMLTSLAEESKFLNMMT

[1] = system: GLI-dependent firefly luciferase activity in Shh-LIGHT2 cells; assay: GLI-dependent luciferase assay in Shh-L2 cells; format: cell-based, mouse
Procedure: Cells were transfected by the expression constructs or respective empty vectors using Polyethylenimine transfection agent (PEI) (Inbio) and as described in [28]. We used 0.25 μg of cDNA per 1 cm^2 of plate surface area for transfections. After 3 h of transfection HEK293, NIH3T3 and Cos1 cells were propagated in the normal growth medium for 48 h. Prior the further analysis the cells were washed twice with PBS. Post-transfectional Shh-L2 cells were grown in the normal growth medium for 24 h and for additional 24 h in the Light medium containing 0.25% FBS, washed once with PBS, lysed in Passive Lysis Buffer (Promega, Madison Wis., USA) (70 ul per well of 24-well plate format) and subjected to luciferase assay.
Luciferase assay was performed as previously described. Briefly, firefly luciferase activity of 12 μl of the Shh-L2 cells lysate was measured using Luciferase Assay Kit (Promega) and galactosidase activity was quantified using Galacto-LightPlus kit (Tropix, Bedford Mass., USA) according to the manufacturer's instructions. Chemiluminicence was measured using Ascent FL Fluoroscan (Thermo Electron Corporation, Waltham Mass., USA) according to the manufacturer's instructions.
We cotransfected the constructs together with GLI-expressing plasmids (or respective empty vector) into Shh-L2 cells and assessed their effect on GLI-dependent firefly luciferase activity. The obtained data was normalized with β-galactosidase values. […] It was able to stimulate the luciferase activity 3.8 times and enhanced the transcriptional activity of over expressed GLI1 and GLI2 approximately 2 and 3.2 times, respectively. The potency of STK36 in the assay was much lower.
In order to examine if the kinase activity of ULK3 is required for the luciferase reporter activation we tested the supposed kinase-deficient variants of ULK3, ULK3(K44R) and ULK3(K139R) in the same assay. […] We also tested the effect of ULK3 and the mutants on the luciferase reporter when the SHH pathway was activated by cotransfection with pShhN (plasmid expressing biologically active part of SHH).

ULK3 = assay: In vitro kinase assay, autophosphorylation; format: biochemical, human; conditions: FLAG-tagged protein immunopurified from HEK293 cells, γ-P32-ATP
Procedure: (§1) HEK293 cells were transfected with 13.5 μg of FLAG-tagged constructs expressed GLI1, GLI2, GLI3, ULK3, ULK3(K44R), ULK3(K139R) or FLAG-CMV-4 empty vector on 10 cm plates. The cells were lysed with 0.5 ml of Lysis Buffer (50 mM Tris HCl, pH 7.4, 150 mM NaCl, 1 mM EDTA, 1% Triton X-100) containing protease inhibitor cocktail (PIC) (Roche Applied Science). The lysates were centrifuged for 15 min at 4° C. and 15000 g, and the supernatants were used for immunoprecipitation (IP). IP was performed using anti-FLAG-M2 affinity gel (Sigma-Aldrich) in batch format according to the manufacture's instructions. Immune complexes were washed three times with 500 μl of Kinase Buffer (KB) (50 mM HEPES, pH 7.4, 20 mM MgCl2, 25 μM ATP) and resuspended in 12.5 μl of KB. One fifth of the immuno-complexes was subjected to WB and the rest was used for the kinase assay.
(§2) Kinase reactions were carried out in KB in a total volume of 20 μl of in the presence of 1 μCi of [γ-^32P]ATP per reaction. We used 1 μl of the immunoprecipitated ULK3, ULK3(K44R) or ULK3(K139R) mixed with 5 μl of the GLI-M2 immunocomplexes or 5 μl of bacterially expressed and purified His-GLI1 fragments. Kinase reactions were held at 30° C. for 30 min and terminated by adding of 5 μl of 4× Laemmli Sample Buffer. Proteins were resolved by SDS-PAGE. The gel was dried at 80° C. for 2 h, and autoradiography was performed using Bio-Rad Personal Molecular Imager FX.
To test if ULK3 has an autophosphorylation activity, we expressed FLAG-tagged wild-type ULK3 and mutants ULK3(K44R) and ULK3(K139R) in HEK293 cells, immunopurified and subjected to in vitro kinase assay in the presence of γ-P^32-ATP.

GLI2 = assay: In vitro kinase assay, phosphorylation of GLI2; format: biochemical; conditions: FLAG-tagged GLI2 immunoprecipitated from HEK293 cells
Procedure: as §1
as §2, with “The gel was dried at 80° C. for 2 h, and autoradiography was performed using Bio-Rad Personal Molecular Imager FX.” left out

B1: FLAG-tagged ULK3(K44R) (protein)
chain: MAGPGWGPPRLDGFILTERLGSGTYATVYKAYAKKDTREVVAIRCVAKKSLNKASVENLLTEIEILKGIRHPHIVQLKDFQWDSDNIYLIMEFCAGGDLSRFIHTRRILPEKVARVFMQQLASALQFLHERNISHLDLKPQNILLSSLEKPHLKLADFGFAQHMSPWDEKHVLRGSPLYMAPEMVCQRQYDARVDLWSMGVILYEALFGQPPFASRSFSELEEKIRSNRVIELPLRPLLSRDCRDLLQRLLERDPSRRISFQDFFAHPWVDLEHMPSGESLGRATALVVQAVKKDQEGDSAAALSLYCKALDFFVPALHYEVDAQRKEAIKAKVGQYVSRAEELKAIVSSSNQALLRQGTSARDLLREMARDKPRLLAALEVASAAMAKEEAAGGEQDALDLYQHSLGELLLLLAAEPPGRRRELLHTEVQNLMARAEYLKEQVKMRESRWEADTLDKEGLSESVRSSCTLQ
- in vitro kinase assay, phosphorylation signal (32P autoradiography) (FLAG-tagged GLI2, P10070): The mutant ULK3(K44R) could slightly phosphorylate GLI2 (data not shown)
- enhancement of transcriptional activity of overexpressed GLI1 ([1]; cotransfected with GLI1, Shh-L2 cells): neither of the mutants had an effect
- enhancement of transcriptional activity of overexpressed GLI2 ([1]; cotransfected with GLI2, Shh-L2 cells): some residual activity
- induction of luciferase activity with activated SHH pathway ([1]; cotransfection with pShhN, Shh-L2 cells): 1.7 times
- autophosphorylation activity (ULK3): reduced efficiency in autophosphorylation
- phosphorylation of GLI2 (GLI2): slightly phosphorylate
